In paper PMC3005583:

Molecular target: lysozyme (Lys) (UniProt P00698 19-147)
Assay: competition

B1: Anti-Lys aptamer / Competitor 3 probe (mixed)
DNA 1: ATCAGGGCTAAAGAGTGCAGAGTTACTTAG
DNA 2: ATCAGGGCACTCTTTAGCCCTGAT
modifications: 5' and 3' pyrene via (CH2)6 on strand 2
  binding result: binds
